Source: patent publication US20200376136A1

Molecular target: human six-transmembrane epithelial antigen of prostate 2 (STEAP2) (human) (UniProt Q8NFT2)
Assay: FACS on HEK293 cells (low STEAP2), MFI fold above unstained, average at 100-300 nM antibody

human six-transmembrane epithelial antigen of prostate 2 (STEAP2) (human), sequence (Q8NFT2 whole entry): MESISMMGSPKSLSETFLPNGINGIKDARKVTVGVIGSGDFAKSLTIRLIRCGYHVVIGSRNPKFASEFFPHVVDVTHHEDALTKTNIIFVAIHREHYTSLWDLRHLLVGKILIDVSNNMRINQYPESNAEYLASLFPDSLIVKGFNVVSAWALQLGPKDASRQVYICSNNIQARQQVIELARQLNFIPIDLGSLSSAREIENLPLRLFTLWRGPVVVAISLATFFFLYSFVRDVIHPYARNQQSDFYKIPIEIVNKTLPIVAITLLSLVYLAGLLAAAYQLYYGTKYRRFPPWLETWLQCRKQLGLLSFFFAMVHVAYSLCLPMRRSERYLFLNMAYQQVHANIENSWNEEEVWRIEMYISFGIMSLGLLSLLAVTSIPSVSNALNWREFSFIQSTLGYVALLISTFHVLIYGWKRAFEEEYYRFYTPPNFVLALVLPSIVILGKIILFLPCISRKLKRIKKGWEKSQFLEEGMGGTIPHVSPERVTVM

Substance hIgG1 Isotype Control-I (antibody) has an Avg F.A.B (fold above background) (fold above background) of 1.

With hIgG1 Isotype Control-II (antibody) the Avg F.A.B (fold above background) (fold above background) was 1.7.
